We go through 17 molecules from patent US20250163164A1 (LANOVA MEDICINES DEVELOPMENT, published 2025).

T1: human interleukin 13 receptor subunit alpha 2 (IL-13RA2) (human, UniProt Q14627 27-380)
T1 construct: whole, on cells; also called IL-13Rα2; CD213A2
T1 sequence (looked up): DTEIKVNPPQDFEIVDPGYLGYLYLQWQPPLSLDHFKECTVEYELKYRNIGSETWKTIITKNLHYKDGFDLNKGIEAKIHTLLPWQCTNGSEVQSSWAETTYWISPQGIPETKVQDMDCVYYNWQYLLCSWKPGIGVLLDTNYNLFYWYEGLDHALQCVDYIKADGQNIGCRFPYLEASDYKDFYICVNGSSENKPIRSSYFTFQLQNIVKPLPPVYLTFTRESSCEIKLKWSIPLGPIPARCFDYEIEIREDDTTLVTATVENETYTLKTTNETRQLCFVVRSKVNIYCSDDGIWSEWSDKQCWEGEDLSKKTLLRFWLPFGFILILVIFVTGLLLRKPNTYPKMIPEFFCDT

B1: 42E3C4 (antibody, V domains shown)
VH: EVKLVESGGGLVRPGGSLKISCAASGFTFSTYGMSWVRQTPEKRLEWVATISGGGSYTYYPDSVKGRFTISRDNAKNNLYLQMSSLRSEDTALYYCARRDLRSAMDYWGQGTSVTVSS
VL: DIVMTQSQKFMSTSVGDRVSVTCKASQNVDINVAWYQQKPGQSPKALIYSASFRYSGVPDRFTGSGSGTDFTLTISNVQSEDLAEYFCQQYNSYPLTFGGGTKLEIK
notes: purified mouse antibody
B2: 74B5E4 (antibody, V domains shown)
VH: B1 VH with R13K, K19R, I20L
VL: B1 VL with F53Y, S93T
notes: purified mouse antibody
B3: 73A11E2 (antibody, V domains shown)
VH: B1 VH with R13K, I20L, T31S, K76R, S84N
VL: B1 VL with F53Y, Y86F
notes: purified mouse antibody
B4: 54A4F7 (antibody, V domains shown)
VH: B1 VH with R13K, I20L, T31S, Y107H
VL: B1 VL with K24R, A46S, F53Y, K107R
notes: purified mouse antibody
B5: 24G6D5 (antibody, V domains shown)
VH: QVQLQQSGPELVKPGTSVKMSCKASGYTFTSNYIHWVKQRPGQGLEWIGWIYPGDGSIKYNEKFKGKTTLTADKSSSTVYMLLSSLTSEDSAIYFCAVLRRLDYWGQGTTLTVSS
VL: DIVLTQSPATLSVTPGDSVSLSCRASQSISNNLHWYQQKSHESPRLLIKYASQSISGIPSRFSGSGSGTDFTLSINSVETEDFGMYFCQQSNSWPLTFGAGTKLELK
notes: purified mouse antibody
B6: 57F8H3F1 (antibody, V domains shown)
VH: QVQLQQPGAELVRPGASVKLSCKASGYTFTNYWMNWIKQRPEQGLEWIGRIDPYETETHYNQKFRDRAILTVDKSSSTAFMQLSGLTSEDSAVYYCARGYGHYYGVDYWGQGTSVTVSS
VL: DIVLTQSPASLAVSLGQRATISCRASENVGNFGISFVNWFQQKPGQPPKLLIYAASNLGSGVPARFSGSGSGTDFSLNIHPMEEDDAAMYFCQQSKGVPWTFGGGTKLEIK
notes: purified mouse antibody
B7: 62F6A8 (antibody, V domains shown)
VH: QVQIQQSGAELARPGASVMLSCKASGYTFTDYWMQWIKQRPGQGLEGIGAIYPGDGDTAYNQKFRGKATLTADKSSSTAYMQLNSLASEDSAVYFCARGATLLRPFPFWGQGTLVTVSA
VL: DIVMTQSHKFMSTSVGDRVSITCKASQDVSTAVAWYQQKPGQSPKLLIYSASYRYAGVPDRFTGSGSGTDFTFTISSVQAEDLAVYSCQQHYSIPPTFGGGTKLEIK
notes: purified mouse antibody
B8: 61H8C1 (antibody, V domains shown)
VH: B7 VH with I4L, D31S, M34T, G56D, A59S, R65K, A87T, F95Y, F108Y
VL: B7 VL with A56T
notes: purified mouse antibody
B9: 51G2B3 (antibody, V domains shown)
VH: QVQLQQSGPELVKPGASVKISCKASGYAFSDSWMNWVKQRPGQGLEWIGRIYPGDGDTNYNGKFKGKATLTADKSSNTAYMQLSSLTSVDSAVYFCARSWNGSPWFPYWGQGTLVTVSA
VL: DVLMTQTPLSLPVSLGDQASISCRSSQTIAHRNGNTYLEWYLQKPGQSPKLLLYKVSNRFSGVPDRFSGSGSGTDFTLKISRVEAEDLGVYYCFQGSHVTWTFGGGTKLEIK
notes: purified mouse antibody
B10: 34A5G9 (antibody, V domains shown)
VH: EVHLQQSGPELVKPGASVKISCKTSGYTFTEYTMHWVKQSHGKSLEWIGRINPNNGIAEYKQTFKDKATLAVDKSSSTAYMEFRSLTSEDSAVYYCARGEGYGYWFAYWGQGTLVTVSA
VL: DIQMTQSPASLSASVGETVTITCRTSDNIYSYLAWYQQRQGKSPQLLVSNARTLAEGVPSRFSGSGSGTQFSLKINSLQPEDFGIYYCQHHSGTPFTFGSGTNLEIE
notes: purified mouse antibody
B11: 72B4H4 (antibody, V domains shown)
VH: QVQLQQPGAERVRPGASVKLSCKASGYTFTNYWMNWVKQRPEQGLEWIGRIDPYAGETHYNQKFKDKAILTVDKSSSTAYMQLRSLTSEDSAVYYCARGYGDSYGMDHWGQGTSVTVSS
VL: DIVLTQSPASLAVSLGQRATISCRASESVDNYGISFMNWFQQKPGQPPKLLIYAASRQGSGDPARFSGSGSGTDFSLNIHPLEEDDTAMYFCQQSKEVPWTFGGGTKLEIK
notes: purified mouse antibody
B12: xi62A8D8 hIgG1 (antibody, V domains shown)
VH: B1 VH with R13K, I20L, T31S
VL: B1 VL with F53Y, Y86F, S93N
B13: xi54A4F7 hIgG1 (antibody, V domains shown)
VH: B1 VH with R13K, I20L, T31S, Y107H
VL: B1 VL with K24R, A46S, F53Y, K107R
B14: xi74B5E4 hIgG1 (antibody, V domains shown)
VH: B1 VH with R13K, K19R, I20L
VL: B1 VL with F53Y, S93T
B15: xi24G6D5 hIgG1 (antibody, V domains shown)
VH: B5 VH
VL: B5 VL
B16: xi51G2B3 hIgG1 (antibody, V domains shown)
VH: B9 VH
VL: B9 VL
B17: xi34A5G9 hIgG1 (antibody, V domains shown)
VH: B10 VH
VL: B10 VL

Usually EC50 stands for the concentration that produces a half-maximal response. A high value points to lower potency in that assay.

Substitutions are numbered along the chain they refer to.

The first experiment concerns the target T1, human interleukin 13 receptor subunit …. The experiment can be described thus: FACS on A375 cells. As to the method:
A375 cells that endogenously expressed IL-13RA2 were harvested from flasks. 100 μl of 1×10⁶ cells/ml of cells were incubated with primary antibodies in 4-fold serial dilutions starting from 100 nM to 0.006 nM for 30 minutes on ice. After being washed with 200 μl of FACS buffer twice, cells were incubated with secondary antibody for 30 minutes on ice. Cells were washed with 200 μl of FACS buffer twice and analyzed by FACS.
Turning to B1, the EC50 came out at 520 pM and the “Top (MFI)” value is 235000 MFI.

B2: the EC50 was determined as 600 pM and the “Top (MFI)” value came to 268000 MFI.

As to B3, the EC50 is 710 pM and the “Top (MFI)” value came out at 223000 MFI.

For the molecule B4, a half-maximal effect (EC50) was put at 840 pM and the “Top (MFI)” value was 268000 MFI.

For the molecule B5, the midpoint of the response, the EC50, lay at 680 pM and the “Top (MFI)” value came out at 226000 MFI.

With B6, it took 700 pM to reach a half-maximal effect (EC50) and the “Top (MFI)” value came out at 246000 MFI.

As for B7, it took 680 pM to reach a half-maximal effect (EC50) and the “Top (MFI)” value was determined as 217000 MFI.

Take B8: the response was half-maximal at 410 pM (EC50) and the “Top (MFI)” value was determined as 203000 MFI.

Turning to B9, the EC50 was determined as 870 pM and the “Top (MFI)” value worked out at 243000 MFI.

With B10, the response was half-maximal at 670 pM (EC50) and the “Top (MFI)” value was 248000 MFI.

With B11, it took 760 pM to reach a half-maximal effect (EC50) and the “Top (MFI)” value was found to be 262000 MFI.

The next experiment shares this target. Kind of experiment: FACS on A375 cells. This is another data set of the same source. The procedure: A375 cells that endogenously expressed IL-13RA2, were harvested from flasks. 100 μl of 1×10⁶ cells/ml of cells were incubated with primary chimeric antibodies in 3-fold serial dilutions starting from 300 nM to 0.002 nM for 30 minutes on ice. After being washed with 200 μl of FACS buffer twice, cells were incubated with secondary antibody for 30 minutes on ice. Cells were washed with 200 μl of FACS buffer twice and analyzed by FACS.
As shown in FIG. 3 and Table 4, the chimeric antibodies bound to human IL-13RA2 at different EC50.
As to B12, the midpoint of the response, the EC50, lay at 820 pM and the “Top (MFI)” value came to 17300 MFI.

As for B13, a half-maximal response (EC50) required 630 pM and the “Top (MFI)” value was 18000 MFI.

With B14, the EC50 came out at 700 pM and the “Top (MFI)” value worked out at 18100 MFI.

Take B15: the EC50 was found to be 880 pM and the “Top (MFI)” value worked out at 15200 MFI.

B16: a half-maximal effect (EC50) was put at 640 pM and the “Top (MFI)” value was determined as 15500 MFI.

Consider B17, for which the EC50 turned out to be 260 pM and the “Top (MFI)” value came to 16700 MFI.

A further experiment has the same target. Kind of experiment: cell-based or functional assay.
On to B12, for which the “internalization EC50 (pHAb dye), A375 cells” value is 1 nM; the “internalization EC50 (pHAb dye), CHO-K1/H_IL-13RA2 cells” value came to 1.58 nM; the “internalization EC50 (pHAb dye), HEK-293/H IL-13RA2 cells” value worked out at 1.88 nM; the “internalization Top (MFI), A375 cells” value came out at 5550 MFI. Also, the “internalization Top (MFI), CHO-K1/H_IL-13RA2 cells” value amounted to 17200 MFI and the “internalization Top (MFI), HEK-293/H IL-13RA2 cells” value came to 23300 MFI.

Consider B13, for which the “internalization EC50 (pHAb dye), A375 cells” value was determined as 0.66 nM; the “internalization EC50 (pHAb dye), CHO-K1/H_IL-13RA2 cells” value was 1.42 nM; the “internalization EC50 (pHAb dye), HEK-293/H IL-13RA2 cells” value amounted to 1.65 nM; the “internalization Top (MFI), A375 cells” value was 5500 MFI. Moreover, the “internalization Top (MFI), CHO-K1/H_IL-13RA2 cells” value is 18000 MFI and the “internalization Top (MFI), HEK-293/H IL-13RA2 cells” value came to 22800 MFI.

Take B14: the “internalization EC50 (pHAb dye), A375 cells” value is roughly 0.437 nM; the “internalization EC50 (pHAb dye), CHO-K1/H_IL-13RA2 cells” value turned out to be 0.91 nM; the “internalization EC50 (pHAb dye), HEK-293/H IL-13RA2 cells” value turned out to be 1.31 nM; the “internalization Top (MFI), A375 cells” value is 5170 MFI. The “internalization Top (MFI), CHO-K1/H_IL-13RA2 cells” value worked out at 17700 MFI and the “internalization Top (MFI), HEK-293/H IL-13RA2 cells” value was determined as 21600 MFI.

With B15, the “internalization EC50 (pHAb dye), A375 cells” value is 0.61 nM; the “internalization EC50 (pHAb dye), CHO-K1/H_IL-13RA2 cells” value turned out to be 0.86 nM; the “internalization EC50 (pHAb dye), HEK-293/H IL-13RA2 cells” value was 2.76 nM; the “internalization Top (MFI), A375 cells” value worked out at 4110 MFI. The “internalization Top (MFI), CHO-K1/H_IL-13RA2 cells” value came out at 12700 MFI and the “internalization Top (MFI), HEK-293/H IL-13RA2 cells” value was 23700 MFI.

As to B16, the “internalization EC50 (pHAb dye), A375 cells” value turned out to be 1.32 nM; the “internalization EC50 (pHAb dye), CHO-K1/H_IL-13RA2 cells” value was determined as 1.84 nM; the “internalization EC50 (pHAb dye), HEK-293/H IL-13RA2 cells” value was 3.84 nM; the “internalization Top (MFI), A375 cells” value was determined as 6380 MFI. The “internalization Top (MFI), CHO-K1/H_IL-13RA2 cells” value is 17100 MFI and the “internalization Top (MFI), HEK-293/H IL-13RA2 cells” value is 28900 MFI.

As to B17, the “internalization EC50 (pHAb dye), A375 cells” value was 3.63 nM; the “internalization EC50 (pHAb dye), CHO-K1/H_IL-13RA2 cells” value stood at 1.38 nM; the “internalization EC50 (pHAb dye), HEK-293/H IL-13RA2 cells” value worked out at 1.78 nM; the “internalization Top (MFI), A375 cells” value amounted to 8610 MFI. Besides, the “internalization Top (MFI), CHO-K1/H_IL-13RA2 cells” value was 13900 MFI and the “internalization Top (MFI), HEK-293/H IL-13RA2 cells” value stood at 25700 MFI.
